From the domain aggregation screens of Martell et al. (2025)

Experiment: soluble fraction after stress (log2 fold change); higher = more stays soluble; pooled small domains, quantitative proteomics
Settings: stress: 75 degC
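Further: 20 min heating vs room temperature control held 20 min.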

HMPTITIQRGIILSSTTKGFIDELSHSQIKNAIVERLGEHHVMIHESQLDAVIKYAQKKEAVINIYL
soluble fraction (log2): -0.874

HMPTMEQTYIGRTMIAEEDMGKNSKIKVSGIYWTAYNKGRVIKKGEEYKITGIEGNKLIVSSK
soluble fraction (log2): -0.393

HMPTNSDRLIGSDGVVSSKIDNLQGTGKVYISGLTWSARTIDGSEAEEGDIVTVEKIEGATLYVTKR
soluble fraction (log2): 0.174

HMPTNVYSIIGKEGIVLESIDNLNSTGKVKVNGELWSAISDSNIEKGETIKVLSVNGVKLKVEKVN
soluble fraction (log2): -0.00656

HMPTPASGSSGYINATNVNFRTGPATSYKSISKLAKNTAVTILGTSGNWYKVTVGSLGKNGYVFATYVTVS
soluble fraction (log2): -2.23

HMPTPLTPREHEIANLIAQGLSNREIADELVISPATAARHVANILAKLGFSSRTQVASWATRHD
soluble fraction (log2): -0.277

HMPTSLPGIDIDEKNIVSSTGALSFKKVPKKLAIIGGGYIGLEMGSVWSRLGSSVTVIEYLNFITPG
soluble fraction (log2): 0.365

HMPTTLEGIEKYLSSGLIKGIGPHLAGKLVEAFGTRVFEVVEHQPERLRTVGGIGRTRAESITSAWRDQ
soluble fraction (log2): -0.146

HMPTTNIRAFRLREADPESVKEALSMVMPKTSIYVDARTKSVLVVGLLDELARAAEIVALIDQP
soluble fraction (log2): -2.8

HMPVFSAEQVAKAEADVQKVANKVQEAGADVEKLTTIHNWLLAREKYMPPDLFSTANQIIATAFQKAG
soluble fraction (log2): 0.525

HMPVGSIGERLKALRLKAGLTQEEVGQHVHISKQTLYKYENGIVTNIPADKIELLATIYSVTPAYIMGWA
soluble fraction (log2): -2.27

HMPVQPMDPSIEHISALTGKQFQAFPGQDHRAHMTAHLNFMSTNIVRNNPAVMGAIQKNILEHISLMAQEQ
soluble fraction (log2): 0.322

HMPVSLHEQIQQARIRAEQNVEGISLLLQVNPKYYEQIEAGDVIPDQDLLKRISSLFGWNYHEMLHREKSS
soluble fraction (log2): -0.781

HMPVSTLLGDNLRRLRTAKGYTQEAVADAARISVAAYRNYETGRAIPKVNTLLAIARALGVSLNDLVTE
soluble fraction (log2): -0.605

HMPVTAQFDFSKVLAGRTLKDGEFSFVLKDKNGTVLQTKTNDASGKVAFDALIYKNNEVGEHKYTVEEVI
soluble fraction (log2): 0.237

HMPVVKIPFILTEGPSSITKVIEIDADEILELKDVFQEDDKLWSINQIEMNDGRYVKHSDASLIVRASALR
soluble fraction (log2): 0.233

HMPYHSEAWHKVMKSHWLTLSREEAYMHEGRTGASTINIVFQRELGREATQEEIESIYQEKSVLFNSYP
soluble fraction (log2): -1.52

HMPYLVNGFILEVQSDDNNPVGTLKRRYAVAKNKQGVILLEGEKSFSSNDQILINELKFYIQSNDLKA
soluble fraction (log2): -2.56

HMPYSKIALQISHLLKSHGVPLSNKQIYEKLINDFQLSINYSNLTNNILPRMNSDSSINVEKVTRGYWQY
soluble fraction (log2): -0.931

HMQADKYKSYTATDFLKDKDFLRWQLFNGEEDMLFWGRVIEEYPALRSRVEEGIVLYKDNIR
soluble fraction (log2): -0.711

HMQADTATITGNGVNMRSGPGTNYQIIDTIPKGTVAEVLSQQDGWVKIYSARISGWVSASYVEIKQT
soluble fraction (log2): -2.5

HMQAGNAVEQYPTIGRLEEVTLGRSQPGAPIGERLSTLETVVFKRNFNDDSLFDRTERLKKTILGG
soluble fraction (log2): -0.104

HMQAKQVAIPDVANYSVTDAIKKLQDAGFIVSDEQREEANETVSEGKVSRTSPAAGSIRKEGTEIILYKSL
soluble fraction (log2): 0.361

HMQALDETTVSRIRQKAAARNLLLKVLAGQLGVARPTLSNVLARREAPSAALAARIRAFLDSP
soluble fraction (log2): -1.45

HMQALTLVGQDAKDAKAALDAVDIQPAKTETDRYIYVLTEQQAQELGRTVDALYGVEGSLTLILEV
soluble fraction (log2): 0.253

HMQAQQYYMLLMNKATSALKIEALGANSNKAHQSFGTKTAGGSAVYWGILFNSNGKIYKIVG
soluble fraction (log2): -3.06

HMQASIPQSQKDALAKELQALPPHGRNRVLSTFRQQFNISSEKISEFITTPEHLSFIRSKIAEVESDS
soluble fraction (log2): 0.267

HMQDENAVTYLLEIKNADANDIASVLKTLKSPDADVVVYKTLNMIIFTGQGSEINGLVKVARQLDRK
soluble fraction (log2): -2.04

HMQDGVNLENIEQKLSTLGVGKAQYFLQNVGGNKFNAYMALNTDGVEGYQKGSDTLIEIKNVE
soluble fraction (log2): 0.215

HMQDKIWVVDETQLYPKLIEAMSEGKAVIHDGVAYWAEGSGKTGVIQHLPFKETTVQNVEEAIKLAQ
soluble fraction (log2): 0.0953

HMQDKLLRKKEVLEMVSITNSTMYRMIGSGQFPRPIRLDNANINSGVRWKLSEINTFIEQRF
soluble fraction (log2): -0.513

HMQDLAKRWVEEFGDLLYKYTLPRVSDSGIAKDLVQETFLAAWRNIDNFKGEASEKNWLFTILKNKIIDH
soluble fraction (log2): -0.382

HMQDLTAQQQAILSFLKEHPKATRKEISENIPNITEDNIRYNLSQLQELGFVKSMGDSFIRIAI
soluble fraction (log2): 0.534

HMQDNDLKNQIENVLRTYPDNVFTVEKIADVLRSHGSAAFKLIVQELASLERDKVAVVTEDGKFQLNPD
soluble fraction (log2): 0.261

HMQDPTAVISRVLEERKHQPGALLPILHGIQDALGYVPREAVAQIAQALNLSRAEIHGVVSFYHHFR
soluble fraction (log2): -0.59

HMQDPVWVDWLGENDWFQKDPKRRGLANGYSEILRAEQPELVGRPFLDEVTRRVQADFPELFG
soluble fraction (log2): -0.944

HMQDTRSHARKMLAAIEALLEGRSGSDIQAYTIHNRSITKMTVPELVKWRSYYQQQVRSEDAAASLA
soluble fraction (log2): -0.61

HMQDTYLYPVQHNGKVRLQVELPAKGLPEDLVRLALAHPKVVEWLNGRIPTKTIAVPGRIINMVLPNQ
soluble fraction (log2): -0.638

HMQDVWEPFLAKGYVFADGMLTKLIHKRGDVYKTQEIGSDKIIYVIKDGDTFAHGKTVKAAMLDLAFKKS
soluble fraction (log2): -1.5

HMQDYISAEEAKSAALSASQVDSAGAAFSAAELGEKNGIPYYEVAFTADGLEYRYAIDAQTGTVIESSSSG
soluble fraction (log2): 0.156

HMQEDKVRKLTEMGFAEDQAREALRKHDWDETMALNSL
soluble fraction (log2): 0.262

HMQEDSNISFVKIHVDADSGMAHKKLSKLSLPTGFLIVVIIRGEENIIPNGETEVLPGDLLVAAAREFEN
soluble fraction (log2): -1.31

HMQEEELYPRLEEVINQHRGKGEDLIMVLHKAQNLFGYLPRRAQEMVAEGLNVSLNEVYGVITFYNFFST
soluble fraction (log2): 0.194

HMQEERDISFIKIHLEPGHPWRGRALRELMPLKDLLIVMVVRGEDTIVPNGDTRLEEGDLLVLAAYPFEE
soluble fraction (log2): -0.834

HMQEHAHLWRLMEDNRSFKADYIAFENGIVLLQNLSSGKISQYPITDFSIEDQLLILKRHELTAHINAN
soluble fraction (log2): -3.3

HMQEIKPEPISDGRVWKEGMWATTPLGIEGQLLSDPDEKGMVQLGYGNMRININIQDLDPSR
soluble fraction (log2): -0.104

HMQEISQEEALATVLKDLSLTEADLKDLQITREEDKYKILFSKGQTAYDVLVSAKDGQLLQSKQETI
soluble fraction (log2): -0.313

HMQEKQIIDGREFYIHQVERGITLYSIAKQYNVKVADIQAENPFLEAGLQPGQTLKIPLDKVETVQEIK
soluble fraction (log2): -0.218

HMQEPIAVPDFINKSAVDVLVNPVFTQNFKLVSEDVYDDKVPEGYIVGQSVKSDTLVQPGTEIVIYV
soluble fraction (log2): 0.224

HMQEPNYQPLMQNIKSQDLEEVTRLLSLNDVKFKIDHRTGLLLVESSRVYEAKMKLAATGITD
soluble fraction (log2): -1.07

HMQEPVHFTRRERQVLSLILSGQATAEIAKTLGIANATVTTYKKSLYSKSGTNSLSRLLIWAMVRR
soluble fraction (log2): -0.463

HMQEPVYRPVFPGMTDADRQSAMEALKEGGFSPRLNRQTGQLEVDASGYHEAKIYLASQGIPAE
soluble fraction (log2): 0.0608

HMQERNYIVRRGDTLWDLAKTYYGSGTKYTVIYDANRDNIEAEAKRRGKQSSNGGYWIYPGTELTI
soluble fraction (log2): -0.348

HMQERTVVKGVVVQVSRDEAYVDIGYKQEIPVSKRDLAVPAPDDARDVVKVGDEIDVYIKSLGGDNGG
soluble fraction (log2): 0.109

HMQESTPGEGYKWREDVLLRVMSQNGIDESLRDEFVRHAVNYDIDDNMYLKKAEIESAAEAWVLENS
soluble fraction (log2): 0.172

HMQESVTVSAQALRRLLEKGDGDAALLYLALLRHHGTIQPRALAGELRWERPRIEAAEEALRQMGLIA
soluble fraction (log2): -0.48
